Reference: IntAct's records for PubMed 19513107

B1: STE20-related kinase adapter protein alpha (Homo sapiens), Q7RTN6-1 (parent)
chain: MSFLVSKPERIRRWVSEKFIVEGLRDLELFGEQPPGDTRRKTNDASSESIASFSKQEVMSSFLPEGGCYELLTVIGKGFEDLMTVNLARYKPTGEYVTVRRINLEACSNEMVTFLQGELHVSKLFNHPNIVPYRATFIADNELWVVTSFMAYGSAKDLICTHFMDGMNELAIAYILQGVLKALDYIHHMGYVHRSVKASHILISVDGKVYLSGLRSNLSMISHGQRQRVVHDFPKYSVKVLPWLSPEVLQQNLQGYDAKSDIYSVGITACELANGHVPFKDMPATQMLLEKLNGTVPCLLDTSTIPAEELTMSPSRSVANSGLSDSLTTSTPRPSNGDSPSHPYHRTFSPHFHHFVEQCLQRNPDARPSASTLLNHSFFKQIKRRASEALPELLRPVTPITNFEGSQSQDHSGIFGLVTNLEELEVDDWEF
partner: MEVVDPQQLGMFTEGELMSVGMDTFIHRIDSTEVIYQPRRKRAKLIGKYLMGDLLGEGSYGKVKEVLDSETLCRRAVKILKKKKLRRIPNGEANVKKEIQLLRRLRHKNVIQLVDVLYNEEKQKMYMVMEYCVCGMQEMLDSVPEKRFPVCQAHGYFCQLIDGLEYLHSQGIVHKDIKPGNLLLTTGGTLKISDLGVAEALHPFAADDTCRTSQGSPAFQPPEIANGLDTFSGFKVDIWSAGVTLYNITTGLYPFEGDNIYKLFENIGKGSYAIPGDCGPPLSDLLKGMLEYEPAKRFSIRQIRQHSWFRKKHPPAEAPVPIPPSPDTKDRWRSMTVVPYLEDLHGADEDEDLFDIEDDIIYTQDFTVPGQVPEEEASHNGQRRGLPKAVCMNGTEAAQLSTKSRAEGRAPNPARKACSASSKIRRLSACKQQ
B2: Calcium-binding protein 39 (Homo sapiens), Q9Y376 (parent)
chain: MPFPFGKSHKSPADIVKNLKESMAVLEKQDISDKKAEKATEEVSKNLVAMKEILYGTNEKEPQTEAVAQLAQELYNSGLLSTLVADLQLIDFEGKKDVAQIFNNILRRQIGTRTPTVEYICTQQNILFMLLKGYESPEIALNCGIMLRECIRHEPLAKIILWSEQFYDFFRYVEMSTFDIASDAFATFKDLLTRHKLLSAEFLEQHYDRFFSEYEKLLHSENYVTKRQSLKLLGELLLDRHNFTIMTKYISKPENLKLMMNLLRDKSRNIQFEAFHVFKVFVANPNKTQPILDILLKNQAKLIEFLSKFQNDRTEDEQFNDEKTYLVKQIRDLKRPAQQEA
partner: B1 chain
B3: Calcium-binding protein 39 (Homo sapiens), Q9Y376 (parent)
chain: B2 chain
partner: B1 partner

Variants of: B1
Conditions: with stk11_human STK11, Q15831

Variant	effect of a mutation on the interaction
MSFLVSKPERIRRWVSEKFIVEGLRDLELFGEQPPGDTRRKTNDASSESIASFSKQEVMSSFLPEGGCYELLTVIDKDFEDLMTVNLARYKPTGEYVTVRRINLEACSNEMVTFLQGELHVSKLFNHPNIVPYRATFIADNELWVVTSFMAYGSAKDLICTHFMDGMNELAIAYILQGVLKALDYIHHMGYVHRSVEASHILISVDGKVYLSGLRSNLSMISHGQRQRVVHDFPKYSVKVLPWLSPEVLQQNLQGYDAKSDIYSVGITACELANGHVPFKDMPATQMLLEKLNGTVPCLLDTSTIPAEELTMSPSRSVANSGLSDSLTTSTPRPSNGDSPSHPYHRTFSPHFHHFVEQCLQRNPDARPSASTLLNHSFFKQIKRRASEALPELLRPVTPITNFEGSQSQDHSGIFGLVTNLEELEVDDWEF [G76D;G78D;K197E]	disrupting interaction
MSFLVSKPERIRRWVSEKFIVEGLRDLELFGEQPPGDTRRKTNDASSESIASFSKQEVMSSFLPEGGCYELLTVIDKDFEDLMTVNLARYKPTGEYVTVRRINLEACSNEMVTFLQGELHVSKLFNHPNIVPYRATFIADNELWVVTSFMAYGSAKDLICTHFMDGMNELAIAYILQGVLKALDYIHHMGYVHRSVEASHILISVDGKVYLSGLESNLSMISHGQRQRVVHDFPKYSVKVLPWLSPEVLQQNLQGYDAKSDIYSVGITACELANGHVPFKDMPATQMLLEKLNGTVPCLLDTSTIPAEELTMSPSRSVANSGLSDSLTTSTPRPSNGDSPSHPYHRTFSPHFHHFVEQCLQRNPDARPSASTLLNHSFFKQIKRRASEALPELLRPVTPITNFEGSQSQDHSGIFGLVTNLEELEVDDWEF [G76D;G78D;K197E;R215E]	disrupting interaction

Variants of: B2
Conditions: with STRADA

Variant	effect of a mutation on the interaction
MPFPFGKSHKSPADIVKNLKESMAVLEKQDISDKKAEKATEEVSKNLVAMKEILYGTNEKEPQTEAVAQLAQELYNSGLLSTLVADLQLIDFEGKKDVAQIFNNILARQIGTRTPTVEYICTQQNILFMLLKGYESPEIALNCGIMLRECIRHEPLAKIILWSEQFYDFFRYVEMSTFDIASDAFATFKDLLTRHKLLSAEFLEQHYDRFFSEYEKLLHSENYVTKRQSLKLLGELLLDRHNFTIMTKYISKPENLKLMMNLLRDKSRNIQFEAFHVFKVFVANPNKTQPILDILLKNQAKLIEFLSKFQNDRTEDEQFNDEKTYLVKQIRDLKRPAQQEA [R107A]	disrupting interaction
MPFPFGKSHKSPADIVKNLKESMAVLEKQDISDKKAEKATEEVSKNLVAMKEILYGTNEKEPQTEAVAQLAQELYNSGLLSTLVADLQLIDFEGKADVAQIFNNILRRQIGTRTPTVEYICTQQNILFMLLKGYESPEIALNCGIMLRECIRHEPLAKIILWSEQFYDFFRYVEMSTFDIASDAFATFKDLLTRHKLLSAEFLEQHYDRFFSEYEKLLHSENYVTKRQSLKLLGELLLDRHNFTIMTKYISKPENLKLMMNLLRDKSRNIQFEAFHVFKVFVANPNKTQPILDILLKNQAKLIEFLSKFQNDRTEDEQFNDEKTYLVKQIRDLKRPAQQEA [K96A]	disrupting interaction
MPFPFGKSHKSPADIVKNLKESMAVLEKQDISDKKAEKATEEVSKNLVAMKEILYGTNEKEPQTEAVAQLAQELYNSGLLSTLVADLQLIDFEGKKDVAQIFNNILRRQIGTRTPTVEYICTQQNILFMLLKGYESPEIALNCGIMLRECIRHEPLAKIILWSEQFYDFFRYVEMSTFDIASDAFATFKDLLTRHKLLSAEFLEQHYDRFFSEYEKLLHSENYVTKRASLKLLGELLLDRHNFTIMTKYISKPENLKLMMNLLRDKSRNIQFEAFHVFKVFVANPNKTQPILDILLKNQAKLIEFLSKFQNDRTEDEQFNDEKTYLVKQIRDLKRPAQQEA [Q228A]	disrupting interaction
MPFPFGKSHKSPADIVKNLKESMAVLEKQDISDKKAEKATEEVSKNLVAMKEILYGTNEKEPQTEAVAQLAQELYNSGLLSTLVADLQLIDFEGKKDVAQIFNNILRRQIGTRTPTVEYICTQQNILFMLLKGYESPEIALNCGIMLRECIRHEPLAKIILWSEQFYDFFRYVEMSTFDIASDAFATFKDLLTRHKLLSAEFLEQHYDRFFSEYEKLLHSENAVTKRQSLKLLGELLLDRHNFTIMTKYISKPENLKLMMNLLRDKSRNIQFEAFHVFKVFVANPNKTQPILDILLKNQAKLIEFLSKFQNDRTEDEQFNDEKTYLVKQIRDLKRPAQQEA [Y223A]	disrupting interaction
MPFPFGKSHKSPADIVKNLKESMAVLEKQDISDKKAEKATEEVSKNLVAMKEILYGTNEKEPQTEAVAQLAQELYNSGLLSTLVADLQLIDAEGKKDVAQIFNNILRRQIGTRTPTVEYICTQQNILFMLLKGYESPEIALNCGIMLRECIRHEPLAKIILWSEQFYDFFRYVEMSTFDIASDAFATFKDLLTRHKLLSAEFLEQHYDRFFSEYEKLLHSENYVTKRQSLKLLGELLLDRHNFTIMTKYISKPENLKLMMNLLRDKSRNIQFEAFHVFKVFVANPNKTQPILDILLKNQAKLIEFLSKFQNDRTEDEQFNDEKTYLVKQIRDLKRPAQQEA [F92A]	disrupting interaction
MPFPFGKSHKSPADIVKNLKESMAVLEKQDISDKKAEKATEEVSKNLVAMKEILYGTNEKEPQTEAVAQLAQELYNSGLLSTLVADLQLIDFEGKKDVAQIFNNILRRQIGTRTPTVEYICTQQNILFMLLKGYESPEIALNCGAMLRECIRHEPLAKIILWSEQFYDFFRYVEMSTFDIASDAFATFKDLLTRHKLLSAEFLEQHYDRFFSEYEKLLHSENYVTKRQSLKLLGELLLDRHNFTIMTKYISKPENLKLMMNLLRDKSRNIQFEAFHVFKVFVANPNKTQPILDILLKNQAKLIEFLSKFQNDRTEDEQFNDEKTYLVKQIRDLKRPAQQEA [I145A]	disrupting interaction
MPFPFGKSHKSPADIVKNLKESMAVLEKQDISDKKAEKATEEVSKNLVAMKEILYGTNEKEPQTEAVAQLAQELYNSGLLSTLVADLQLIDFAGKKDVAQIFNNILRRQIGTRTPTVEYICTQQNILFMLLKGYESPEIALNCGIMLRECIRHEPLAKIILWSEQFYDFFRYVEMSTFDIASDAFATFKDLLTRHKLLSAEFLEQHYDRFFSEYEKLLHSENYVTKRQSLKLLGELLLDRHNFTIMTKYISKPENLKLMMNLLRDKSRNIQFEAFHVFKVFVANPNKTQPILDILLKNQAKLIEFLSKFQNDRTEDEQFNDEKTYLVKQIRDLKRPAQQEA [E93A]	disrupting interaction
MPFPFGKSHKSPADIVKNLKESMAVLEKQDISDKKAEKATEEVSKNLVAMKEILYGTNEKEPQTEAVAQLAQELYNSGLLSTLVADLQLIDFEGKKDVAQIFNNILRRQIGTRTPTVEYICTQQNILFMLLKGYESPEIALNCGIMLRECIRHEPLAKIILWSEQFYDFFRYVEMSTFDIAADAFATFKDLLTRHKLLSAEFLEQHYDRFFSEYEKLLHSENYVTKRQSLKLLGELLLDRHNFTIMTKYISKPENLKLMMNLLRDKSRNIQFEAFHVFKVFVANPNKTQPILDILLKNQAKLIEFLSKFQNDRTEDEQFNDEKTYLVKQIRDLKRPAQQEA [S182A]	disrupting interaction
MPFPFGKSHKSPADIVKNLKESMAVLEKQDISDKKAEKATEEVSKNLVAMKEILYGTNEKEPQTEAVAQLAQELYNSGLLSTLVADLQLIDFEGKKDVAQIFNNILRRQIGTRTPTVEYICTQQNILFMLLKGYESPEIALNCGIMLRECIRHEPLAKIILWSEQFYDFFRYVEMSTFDIASDAFATFKDLLTRHKLLSAEFLEQHYDRFFSEYEKLLHSENYVTKRQSLKLLGELLLDRHNFTIMTKYISKPENLKLMANLLRDKSRNIQFEAFHVFKVFVANPNKTQPILDILLKNQAKLIEFLSKFQNDRTEDEQFNDEKTYLVKQIRDLKRPAQQEA [M260A]	disrupting interaction
MPFPFGKSHKSPADIVKNLKESMAVLEKQDISDKKAEKATEEVSKNLVAMKEILYGTNEKEPQTEAVAQLAQELYNSGLLSTLVADLQLIDFEGKKDVAQIFNNILRRQIGTRTPTVEYICTQQNILFMLLKGYESPEIALNCGIMLRECIRHEPLAKIILWSEQFYDFFRYVEMSTADIASDAFATFKDLLTRHKLLSAEFLEQHYDRFFSEYEKLLHSENYVTKRQSLKLLGELLLDRHNFTIMTKYISKPENLKLMMNLLRDKSRNIQFEAFHVFKVFVANPNKTQPILDILLKNQAKLIEFLSKFQNDRTEDEQFNDEKTYLVKQIRDLKRPAQQEA [F178A]	disrupting interaction

Variants of: B2
Conditions: with STRADA
Remark: another data set of the same source

Variant	effect of a mutation on the interaction
MPFPFGKSHKSPADIVKNLKESMAVLEKQDISDKKAEKATEEVSKNLVAMKEILYGTNEKEPQTEAVAQLAQELYNSGLLSTLVADLQLIDFEGKKDVAQIFNNILRRQIGTRTPTVEYICTQQNILFMLLKGYESPEIALNCGIMLRECIRHEPLAKIILWSEQFYDFFRYVEMSTFDIASDAFATFKDLLTRHKLLSAEFLEQHYDRFFSEYEKLLHSENYVTKAQSLKLLGELLLDRHNFTIMTKYISKPENLKLMMNLLRDKSRNIQFEAFHVFKVFVANPNKTQPILDILLKNQAKLIEFLSKFQNDRTEDEQFNDEKTYLVKQIRDLKRPAQQEA [R227A]	disrupting interaction

Variants of: B2
Conditions: with STRADA
Remark: another data set of the same source

Variant	effect of a mutation on the interaction
MPFPFGKSHKSPADIVKNLKESMAVLEKQDISDKKAEKATEEVSKNLVAMKEILYGTNEKEPQTEAVAQLAQELYNSGLLSTLVADLQLIDFEGKKDVAQIFNNILRRQIGTRTPTVEYICTQQNILFMLLKGYESPEIALNCGIMLRECIRHEPLAKIILWSEQFYDFFRYVEMSTFDIASDAFATFKDLLTRHKLLSAEFLEQHYDRFFSEYEKLLHSENYVTKAQSLKLLGELLLDRHNFTIMTKYISKPENLKLMANLLRDKSRNIQFEAFHVFKVFVANPNKTQPILDILLKNQAKLIEFLSKFQNDRTEDEQFNDEKTYLVKQIRDLKRPAQQEA [R227A;M260A]	disrupting interaction

Variants of: B3
Conditions: with stk11_human STK11, Q15831

Variant	effect of a mutation on the interaction
MPFPFGKSHKSPADIVKNLKESMAVLEKQDISDKKAEKATEEVSKNLVAMKEILYGTNEKEPQTEAVAQLAQELYNSGLLSTLVADLQLIDFEGKKDVAQIFNNILRRQIGTRTPTVEYICTQQNILFMLLKGYESPEIALNCGIMLRECIRHEPLAKIILWSEQFYDFFRYVEMSTFDIASDAFATFKDLLTRHKLLSAEFLEQHYDRFFSEYEKLLHSENYVTKAQSLKLLGELLLDAHNFTIMTKYISKPENLKLMANLLRDKSRNIQFEAFHVFKVFVANPNKTQPILDILLKNQAKLIEFLSKFQNDRTEDEQFNDEKTYLVKQIRDLKRPAQQEA [R227A;R240A;M260A]	disrupting interaction
MPFPFGKSHKSPADIVKNLKESMAVLEKQDISDKKAEKATEEVSKNLVAMKEILYGTNEKEPQTEAVAQLAQELYNSGLLSTLVADLQLIDFEGKKDVAQIFNNILRRQIGTRTPTVEYICTQQNILFMLLKGYESPEIALNCGIMLRECIRHEPLAKIILWSEQFYDFFRYVEMSTFDIASDAFATFKDLLTRHKLLSAEFLEQHYDRFFSEYEKLLHSENYVTKAQSLKLLGELLLDAHNFTIMTKYISKPENLKLMMNLLRDKSRNIQFEAFHVFKVFVANPNKTQPILDILLKNQAKLIEFLSKFQNDRTEDEQFNDEKTYLVKQIRDLKRPAQQEA [R227A;R240A]	disrupting interaction
